From the supplement of paper PMC9170038

Test system: MS2 coat protein
Assay: apparent KD of MS2 coat protein; designed switch direction (-1 OFF switch, 1 ON switch): -1; higher = weaker reporter binding
How it was run: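 Transcription of designed RNA switches on Illumina chips was done by stalled E. coli RNA polymerase. SNAP-549-labelled MS2 coat protein was then titrated in doubling steps from 0.7 or 1.5 nM to 3 µM, with steps of 0.8–1.5 h at the lowest and 10–20 min at the highest concentration. The per-design median over clusters of curve-fitted normalised fluorescence is reported as apparent KD.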

[1] = Eterna round: R95, input ligand: FMN 200 uM
[2] = Eterna round: R95, input ligand: microRNA oligo, concentration not stated
[3] = Eterna round: R95, input ligand: none
[4] = input ligand: microRNA oligo, concentration not stated

Sequence | apparent KD of MS2 coat protein [1] [nM] | apparent KD of MS2 coat protein [2] [nM] | apparent KD of MS2 coat protein [3] [nM] | apparent KD of MS2 coat protein (input ligand: FMN 200 uM) [nM] | apparent KD of MS2 coat protein (input ligand: none) [nM] | apparent KD of MS2 coat protein [4] [nM]
AGAUGGCGAGGAUAUACAUGAGGAUCACCCAUGUGAGAAGAAGAAGUGAGGAAGAAAAGUAGAAGGCGCUGUCA [Mat - Exclusion 3 - Mod of Salish D20] (puzzle: Exclusion 3) | 145 | 50.3 | 44.9 |  |  | 
GCCGUGUUAGGAUAUCGCUCGACGAAUAGUUGUCGGAGGAACGAGAAGGAACAUGAGGAUCACCCAUGUGUCAC [Eternabot (L1) Solution 33] (Eterna round: R97, puzzle: Exclusion 4) |  |  |  | 57.5 | 21.4 | 
UAAUUAAGUGUGAGGAUAUGCUGGUCCUUGGAUCAGCAGAAGGCACAUGAGGAUCACCCAUGUAAUUUAUUUAU [JL bmx4 3.10] (puzzle: Brourd's mod of Exclusion 4) |  | 78.5 |  |  |  | 
UUUAUGUCAGGAUAUGAGUAGUAGAACAAUAGUACUACUACUCAGAAGGGACAUGAGGAUCACCCAUGUGCCUC [Fiskers Ex 4 Super stable 44 mod 22] (puzzle: Exclusion 4) |  | 33.6 |  |  |  | 
UUUUGUCGUGACAUGGGUGACAUGAGGAUCACCCAUGUUACAAGCUUGUUGCUCGUCUUAUAAUUAACCCAUGUCAU [LRO Sensor-off var1-18 mod of Stov1-13-A1 by Brourd] (Eterna round: R97, puzzle: Sensor, turn-off variant 1) |  |  |  | 44.7 | 49.1 | 
CUCAUGUGAGGAUAUGUGAUCUGCCUUCUAUGUAGAUGAUCACAGAAGGCACAUGAGGAUCACCCAUGUAGAUC [Ex4 - 3 - 27] (puzzle: Exclusion 4) |  | 69.2 |  |  |  | 
UUAAAUCAUGUAGGAUAUGCGUAGCGAAGCUAUGCAGAAGGACAUGAGGAUCACCCAUGUGCUUGCGUCCGCGUACGGAUGCUA [Mat - Exclusion NG 1 - Mod of JL - D66] (Eterna round: R96, puzzle: Exclusion NG 1) |  |  |  | 202 | 134 | 107
CUUUUGUGAGGAUAUCAGUAGUAAAUAAAUAAAAUUACUAUUGAGAAGGCACAUGAGGAUCACCCAUGUUCCUC [salish99_ex3_r3_088] (puzzle: Exclusion 4) |  | 33.9 |  |  |  | 
CUGAGCUGAGGAUAUACAUGAGGAUCACCCAUGUGUUCCAGCUUGCGUACAGGCAGAUGUAGAAGGCAGUUCGG [JL-ex3-3.35 Brourd mod] (puzzle: Exclusion 3) |  | 38.9 |  |  |  | 
GGUUGGCGAGGAUAUACAUGAGGAUCACCCAUGUGCGAGAAAAAAGUGAGGAAGAAAAGUAGAAGGCGCUGACG [salish99_ex3_r3_018] (puzzle: Exclusion 3) | 238 | 49.5 | 58.2 |  |  | 
GCGUAGUAUGUAGGAUAUCGGUCAGUUUCUGAUCGAGAAGGACAUGAGGAUCACCCAUGUAAAACGCCCGCUUUGUGGGUACGC [JL ENG1 3.59] (Eterna round: R96, puzzle: Exclusion NG 1) |  |  |  | 55.4 | 22.4 | 17.6
AAGAAACGAGGAUAUACAAUUGAGUGAGAGAGGGAAGUGUGACAUGAGGAUCACCCAUGUAGAAGGCGUAAGAG [JR_Exclu2_Sub085] (puzzle: Exclusion 2) | 124 | 79.5 | 73.9 |  |  | 
UACAUGUGAGGAUAUGUACGAAGCCCGGCUGGGCCUCGCAGGCAGAAGGCACAUGAGGAUCACCCAUGUGACCG [Enanvezave] (Eterna round: R96, puzzle: Exclusion 4) |  |  |  | 82.6 | 17.3 | 13.1
GCCAGAGCAGGAUAUUCAAUAUCACACAUGAGGAUCACCCAUGUCCAGCGAAAGCUGGAGGGAGAAGGGCUCUGGC [Fiskers Ex 5 - 12] (puzzle: Exclusion 5) | 18.8 | 61.4 | 88.2 |  |  | 
UAGCCUUUAGUUAGGAUAUGAUAUGGGAACCAUUAUCAGAAGGAACAUGAGGAUCACCCAUGUACCGACAGGGA [Eternabot (L2) Solution 9] (Eterna round: R97, puzzle: Brourd's mod of Exclusion 4) |  |  |  | 19.9 | 12.3 | 
AGGUUGGCGUGAGGAUAUUGGAAAGGAAGUGUACAAGAAGGUACGGACCUAAAACAUGAGGAUCACCCAUGUGGUCCUUAUGCC [PowerStrip EXNG 1.26] (Eterna round: R96, puzzle: Exclusion NG 1) |  |  |  | 14 | 19.6 | 11.2
GGUCCUGAUGAUUUCCUAUACAUGAGGAUCACCCAUGUAUGUGUAUUUUGUUUUUCGCUUUUUGGUCGUCAAUAAUA [Mod-Hoo-honey-2] (Eterna round: R97, puzzle: Sensor, turn-off variant 1) |  |  |  | 32.6 | 33.4 | 

Sequence | apparent KD of MS2 coat protein [1] [nM] | apparent KD of MS2 coat protein [2] [nM] | apparent KD of MS2 coat protein [3] [nM] | apparent KD of MS2 coat protein (input ligand: FMN 200 uM) [nM] | apparent KD of MS2 coat protein (input ligand: none) [nM] | apparent KD of MS2 coat protein [4] [nM]
AAAACGUCAGGAUAUACAGAAGAGAUCACAAAAAAAAAAAAACAUGAGGAUCACCCAUGUAGAAGGGACAAAAA [Ex2 Malc#2] (Eterna round: R96, puzzle: Exclusion 2) |  |  |  | 185 | 115 | 81.2
GUUAGACAUGAGGAUCACCCAUGUGAGGAUAUGAUGAGAAUGAAGUAAGAAGUAGGAAUCAGAAGGCACAUAUG [Mat - Mod of Hyphema D31] (puzzle: Exclusion 1) | 177 | 106 | 132 |  |  | 
GUGAAGAAGUUAGUGGCCUACAUGAGGAUCACCCAUGUGAGGGAAAUGUCGAGGCGGAGGUUGUGUGCUCGUCUGUA [JR_SV3TOV1_Sub041] (puzzle: Sensor v3, turn-off variant 1) | 25.7 | 27.6 | 26.4 |  |  | 
CAACACUGAGGAUAUGCUCGGCCGGUUCUCCGUGCCCAAGUACUUGAGGAUCACCCAAGUAGAAGGCAGUAAAA [Diedar] (Eterna round: R97, puzzle: Exclusion 2) |  |  |  | 18.1 | 16 | 
ACCGCUUCUGCAGGAUAUGGACAACAUGAGGAUCACCCAUGUGAUCUAUAAAGUAGUGGUGGCGUCCAGAAGGGCAGAUUAAGG [Maamabi] (Eterna round: R96, puzzle: Exclusion NG 2) |  |  |  | 197 | 96.3 | 48.2
UCUCCUCCCGUAAGGAUAUUCAUGCGUACCACGCGGAAGAAGGUACAUGAGGAUCACCCAUGUAAUUAACACCG [BmEX4 B.9] (Eterna round: R97, puzzle: Brourd's mod of Exclusion 4) |  |  |  | 30.7 | 24.3 | 
UACAAGCUUUUAAGAUCCUACAUGAGGAUCACCCAUGUGCUCGUCUUGUAACGUACUGUGACGAAAGUCACGGUACG [JL TOV1 3.22] (Eterna round: R97, puzzle: Sensor, turn-off variant 1) |  |  |  | 206 | 220 | 
AAAGGGAAUGAGGAUAUCGUAUUGGAUAUAGUGCGAGAAGGCAUUACAUGAGGAUCACCCAUGUUUUGUUGGGA [JR_Ex6_Sub006] (Eterna round: R97, puzzle: Exclusion 6) |  |  |  | 74.4 | 33.9 | 
GUUUUAUAUGAAGGAUAUACUUAACAUGAGGAUCACCCAUGUGGUGUUGUGAGUGAGUGAGUUUAGUAGAAGGUCAAUGAUUUU [JMF's solution 77] (Eterna round: R96, puzzle: Exclusion NG 2) |  |  |  | 1660 | 473 | 396
AAAUCGGUAGAGGAUAUUGUACAGGAAACGGUGCAAGAAGGUUGCACAUGAGGAUCACCCAUGUUUAAUUGCGA [EX6 #50] (Eterna round: R97, puzzle: Exclusion 6) |  |  |  | 33.9 | 36.2 | 
AGAGUGGAGACAGGAUAUGAGAAUAGAUAGAAAUCAGAAGGGUCACAUGAGGAUCACCCAUGUAAAGUCUUGAGGAUGAGUGAU [Prohibition 1 - Jieux - Exclusion NG1] (Eterna round: R96, puzzle: Exclusion NG 1) |  |  |  | 156 | 81.7 | 65.3
CUGGGCCGAGGAUAUAUUAUGUGAAACAUGAGGAUCACCCAUGUAAUAUGAUGGAUGUAAAUAGAAGGCGGUCUAG [Mat - Exclusion 5 - JL mod - D27] (puzzle: Exclusion 5) | 28.2 | 17.4 | 21.3 |  |  | 
CGCUGGUGAGGAUAUGGGUGUUUUUACAUGAGGAUCACCCAUGUGGAGUAGCAUGUGGGUCCAGAAGGCGCGGGUG [-24.2, -22.5 kcal, 20% A] (Eterna round: R97, puzzle: Exclusion 5) |  |  |  | 682 | 435 | 
CUAAUUAGAGGAUAUACAUGAGGAUCACCCAUGUUCUUCAAGUCGCCAACGGCAUAACGUAGAAGGCUGAGUGG [Eternabot (L1) Solution 32] (Eterna round: R97, puzzle: Exclusion 3) |  |  |  | 26.4 | 25.8 | 
GGAGGACGAGCAGGAUAUUUUCACAUGAGGAUCACCCAUGUGUAUUCAGGGUAAUCUUCCGCCGAAAAGAAGGGUUCGGAAGAA [JL ViennaUCT Socedi mod 3] (Eterna round: R96, puzzle: Exclusion NG 2) |  |  |  | 47.1 | 25.9 | 27.4
AGUAGAUCUACGCUUGCGUGGAUCUGCAAUGCAAGUGUUACAUGAGGAUCACCCAUGUCCUCAUUUGCUCGUCUUAG [JL turnoff v2 99.05] (puzzle: Sensor v3, turn-off variant 2) | 41.4 | 108 | 45.4 |  |  | 
